Patent US20200270335A1 (Biogen, published 2020)

Legend:
[1] = target: T1, human LRP6 on huLRP6-expressing BaF3 cells (human, UniProt O75581 20-1613); experiment: FACS LRP6 binding assay, competition with anti-LRP6 antibody (FIG. 50)
T1 construct: whole, on cells; also called Lipoprotein receptor like protein 6

[2] = target: LRP6 of Super TopFlash (STF, HEK293) cells (UniProt O75581 20-1613, limits assumed); experiment: cell-based or functional assay
LRP6 of Super TopFlash (STF, HEK293) cells, sequence (O75581 20-1613 limits assumed): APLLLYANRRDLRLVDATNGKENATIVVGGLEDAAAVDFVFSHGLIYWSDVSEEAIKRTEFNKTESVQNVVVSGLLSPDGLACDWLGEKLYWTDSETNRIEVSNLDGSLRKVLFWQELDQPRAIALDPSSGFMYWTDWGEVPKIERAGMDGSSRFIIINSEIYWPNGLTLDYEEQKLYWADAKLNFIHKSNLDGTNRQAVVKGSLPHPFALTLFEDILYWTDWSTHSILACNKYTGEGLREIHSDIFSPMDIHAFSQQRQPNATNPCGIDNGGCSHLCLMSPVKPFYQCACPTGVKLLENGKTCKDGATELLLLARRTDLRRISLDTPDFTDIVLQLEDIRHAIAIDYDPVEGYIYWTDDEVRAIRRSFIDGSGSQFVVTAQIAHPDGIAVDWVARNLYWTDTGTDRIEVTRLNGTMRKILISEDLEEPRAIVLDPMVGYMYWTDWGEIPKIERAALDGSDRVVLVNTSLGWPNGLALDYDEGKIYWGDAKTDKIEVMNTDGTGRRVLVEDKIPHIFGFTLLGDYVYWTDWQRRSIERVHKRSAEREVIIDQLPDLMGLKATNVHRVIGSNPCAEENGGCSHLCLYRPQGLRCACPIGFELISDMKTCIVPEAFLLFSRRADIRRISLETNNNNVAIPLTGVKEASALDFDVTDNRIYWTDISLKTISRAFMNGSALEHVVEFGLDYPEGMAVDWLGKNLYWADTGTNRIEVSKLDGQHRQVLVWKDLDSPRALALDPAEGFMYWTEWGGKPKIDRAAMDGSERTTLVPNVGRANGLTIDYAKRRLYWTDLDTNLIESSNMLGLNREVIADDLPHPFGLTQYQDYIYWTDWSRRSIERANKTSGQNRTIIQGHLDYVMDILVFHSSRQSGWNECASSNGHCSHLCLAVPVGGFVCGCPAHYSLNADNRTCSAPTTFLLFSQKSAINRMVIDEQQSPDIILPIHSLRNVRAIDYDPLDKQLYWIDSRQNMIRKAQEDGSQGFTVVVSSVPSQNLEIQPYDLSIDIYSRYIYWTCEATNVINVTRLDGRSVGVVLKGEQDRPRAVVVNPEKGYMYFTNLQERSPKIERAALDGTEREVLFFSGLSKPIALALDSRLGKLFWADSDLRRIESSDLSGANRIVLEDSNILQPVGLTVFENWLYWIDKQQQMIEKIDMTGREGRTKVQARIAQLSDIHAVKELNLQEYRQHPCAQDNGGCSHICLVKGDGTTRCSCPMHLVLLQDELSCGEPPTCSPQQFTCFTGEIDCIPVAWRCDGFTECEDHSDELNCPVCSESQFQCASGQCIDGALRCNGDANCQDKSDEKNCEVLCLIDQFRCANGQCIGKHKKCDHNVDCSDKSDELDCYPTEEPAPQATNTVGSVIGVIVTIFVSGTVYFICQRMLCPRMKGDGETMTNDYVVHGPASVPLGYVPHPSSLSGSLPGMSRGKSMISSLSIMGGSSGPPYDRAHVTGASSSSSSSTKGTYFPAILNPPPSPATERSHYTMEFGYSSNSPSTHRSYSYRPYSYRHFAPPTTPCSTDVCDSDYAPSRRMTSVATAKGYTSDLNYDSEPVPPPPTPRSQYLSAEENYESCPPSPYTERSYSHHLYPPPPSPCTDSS

T1 sequence (O75581 20-1613): as the sequence (O75581 20-1613 limits assumed) above

B1: untagged murine DKK2-C2 from E. coli (ligand)
chain: GSMPHIKGHEGDPCLRSSDCIDGFCCARHFWTKICKPVLHQGEVCTKQRKKGSHGLEIFQRCDCAKGLSCKVWKDATYSSKARLHVCQKI
notes: also called E. coli DKK2 C2; non-PEGylated untagged DKK2-C2
[1]
  IC50: 0.02 µM
[2]
  IC50 in the Wnt signaling Super Top Flash (STF) activity assay: ~0.02 µM

B2: PEGylated untagged murine DKK2-C2 from E. coli (ligand)
chain: B1 chain
modifications: monoPEGylated with 20k-PEG-2-methyl proprionaldehyde and sodium cyanoborohydride; site not stated
notes: also called monoPEGylated DKK2 C2; PEGylated version of DKK2 C2
[1]
  IC50: 0.326 µM
